Results from US12214052.

Target: CD22
Experiment: BLI

Kd	Substance
59 nM	Epratuzumab Fab
51 nM	Epratuzumab Fab-Ferritin
